The text below walks through data of PMC11096365, “Cryo-EM structures of the human Elongator complex at work” (Nature Communications, 2024).

Positions count from the first letter of the chain named.

Data set [1] has as its target TK40. The data set can be described thus: MST. The following applies: complex; chains chain;chain;chain.
Data set [2] concerns the target H3. The data set can be described thus: MST. As to conditions: complex; chains chain;chain;chain.
The target in data set [3] is ELP1;ELP2;ELP3 wild type (Homo sapiens;Homo sapiens;Homo sapiens, UniProt O95163;Q6IA86;Q9H9T3 1-1332;1-826;1-547, ||). As to the kind of experiment: MST; MST: 20 mM HEPES pH 7.5, 100 mM NaCl, 5 mM DTT, 0.05% Tween 20; incubated at 4 C 30 min, measured at 25 C; Cy5-tRNA 14 or 30 nM. Cryo-EM: 20 mM HEPES pH 7.5, 100 mM NaCl, 2 mM MgCl2, 2 mM DTT. The following applies: protein: recombinant;recombinant;recombinant, tags: ;;C-terminal Twin-Strep-Tag, chain copies: 2;2;2, label: internal Cy5 (5% Cy5-CTP), tRNA fold.
ELP1;ELP2;ELP3 wild type, sequence (O95163 whole entry, chain 1 of 3, one chain of several): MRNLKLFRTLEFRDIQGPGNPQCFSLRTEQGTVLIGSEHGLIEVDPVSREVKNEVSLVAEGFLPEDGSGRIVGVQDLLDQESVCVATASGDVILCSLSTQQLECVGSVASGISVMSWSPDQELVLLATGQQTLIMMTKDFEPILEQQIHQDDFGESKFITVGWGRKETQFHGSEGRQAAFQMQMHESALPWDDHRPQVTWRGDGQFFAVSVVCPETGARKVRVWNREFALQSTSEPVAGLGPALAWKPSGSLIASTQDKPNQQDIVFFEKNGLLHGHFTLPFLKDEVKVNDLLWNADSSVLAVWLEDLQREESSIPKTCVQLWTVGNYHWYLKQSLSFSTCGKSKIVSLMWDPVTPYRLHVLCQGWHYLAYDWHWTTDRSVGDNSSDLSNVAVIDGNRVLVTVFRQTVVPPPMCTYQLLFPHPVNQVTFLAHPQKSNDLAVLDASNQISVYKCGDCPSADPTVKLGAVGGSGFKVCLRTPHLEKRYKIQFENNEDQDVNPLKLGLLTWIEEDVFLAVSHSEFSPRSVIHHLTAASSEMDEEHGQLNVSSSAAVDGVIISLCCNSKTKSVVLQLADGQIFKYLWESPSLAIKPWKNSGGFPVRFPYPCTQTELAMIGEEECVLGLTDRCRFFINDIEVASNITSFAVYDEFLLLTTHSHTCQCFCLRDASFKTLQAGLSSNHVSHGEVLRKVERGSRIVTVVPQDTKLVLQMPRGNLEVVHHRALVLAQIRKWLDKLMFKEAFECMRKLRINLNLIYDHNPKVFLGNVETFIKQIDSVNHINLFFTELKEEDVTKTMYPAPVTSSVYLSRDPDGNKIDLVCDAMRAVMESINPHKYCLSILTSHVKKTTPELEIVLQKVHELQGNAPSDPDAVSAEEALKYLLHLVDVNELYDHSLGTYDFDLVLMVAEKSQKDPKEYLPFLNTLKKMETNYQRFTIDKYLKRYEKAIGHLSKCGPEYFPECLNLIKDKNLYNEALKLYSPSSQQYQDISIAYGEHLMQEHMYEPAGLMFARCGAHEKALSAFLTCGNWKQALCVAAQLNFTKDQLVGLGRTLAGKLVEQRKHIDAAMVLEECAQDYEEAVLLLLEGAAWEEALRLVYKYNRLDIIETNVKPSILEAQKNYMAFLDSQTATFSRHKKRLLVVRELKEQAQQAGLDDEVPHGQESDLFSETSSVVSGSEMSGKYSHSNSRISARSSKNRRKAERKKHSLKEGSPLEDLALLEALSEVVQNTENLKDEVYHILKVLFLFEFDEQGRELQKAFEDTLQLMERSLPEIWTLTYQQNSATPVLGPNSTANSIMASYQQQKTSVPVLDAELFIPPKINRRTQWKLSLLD

For data set [4], the target named is T1, human ELP3 with C-terminal Twin-Strep-Tag (human, UniProt Q9H9T3 1-547).
T1 construct: ELP3, human, codon-optimized open reading frame, UniProt Q9H9T3; with the tag 65 kDa as printed; Same material as the ELP3 chain of m4; carries an iron-sulfur cluster in all structures; also called ELP3 with Twin-Strep-Tag (TST); source: SuperSf9-3 insect cells, co-expressed with ELP1 and ELP2 (pBig1a), purified as ELP123 (StrepTrap, heparin, Superose 6); not shown: Twin-Strep-Tag, C-terminal, …
T1 sequence (looked up): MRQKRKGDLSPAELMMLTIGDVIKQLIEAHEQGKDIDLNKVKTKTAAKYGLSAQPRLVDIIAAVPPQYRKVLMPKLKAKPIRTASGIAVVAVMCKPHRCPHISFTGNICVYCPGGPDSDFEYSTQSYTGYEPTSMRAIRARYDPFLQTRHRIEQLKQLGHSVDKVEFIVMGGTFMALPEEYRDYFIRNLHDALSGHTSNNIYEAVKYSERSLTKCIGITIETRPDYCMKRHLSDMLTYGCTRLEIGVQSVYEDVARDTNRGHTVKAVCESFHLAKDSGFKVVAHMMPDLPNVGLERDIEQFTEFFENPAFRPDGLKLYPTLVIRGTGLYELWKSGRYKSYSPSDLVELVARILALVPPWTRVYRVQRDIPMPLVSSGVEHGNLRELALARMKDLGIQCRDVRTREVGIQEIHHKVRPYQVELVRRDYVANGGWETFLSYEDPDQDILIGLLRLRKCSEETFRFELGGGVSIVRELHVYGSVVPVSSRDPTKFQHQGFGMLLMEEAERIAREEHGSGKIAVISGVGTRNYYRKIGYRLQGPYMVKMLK
The data set can be described thus: co-purification with SDS-PAGE; ELP1, ELP2 and ELP3-Twin-Strep co-expressed in insect cells; StrepTrap, heparin and Superose 6 columns; SDS-PAGE of the purified subcomplex. The following applies: partners not purified.

For the molecule “human ELP123 subcomplex (ELP1, ELP2, ELP3), O95163 1-1332; Q6IA86 1-826; Q9H9T3 1-547”, the Kd in data set [1] and in data set [2] was more than 10 µM in each case.

B1: tRNAGln U33C34UG (structured_RNA)
RNA: GGCCCCAUGGUGUAAUGGUUAGCACUCUGGACUCUGAAUCCAGCGAUCCGAGUUCAAAUCUCGGUGGGACCUCCA
As to B1, the binding result in data set [3] is on record as “binds”.

B2: tRNAGln C33U34UG (structured_RNA)
RNA: B1 RNA with U33C, C34U
Consider B2, for which the binding result in data set [3] is “binds”.

B3: tRNAGlnCUG (structured_RNA)
RNA: B1 RNA with C3U, C4U, G68A
Consider B3, for which the Kd (usually the concentration at which binding is half-saturated) in data set [3] amounted to 118 ± 13.8 nM.

B4: tRNAGln C33C34UG (structured_RNA)
RNA: B1 RNA with U33C
Turning to B4, in data set [3], the binding result was “binds”.

B5: tRNASerUGA (structured_RNA)
RNA: GCAGCGAUGGCCGAGUGGUUAAGGCGUUGGACUUGAAAUCCAAUGGGGUCUCCCCGCGCAGGUUCGAACCCUGCUCGCUGCGCCA
On to B5, for which the Kd in data set [3] (long variable loop) is 138 ± 10.5 nM.

B6: human ELP2 (natural protein, UniProt Q6IA86 1-826, looked up)
chain: MVAPVLETSHVFCCPNRVRGVLNWSSGPRGLLAFGTSCSVVLYDPLKRVVVTNLNGHTARVNCIQWICKQDGSPSTELVSGGSDNQVIHWEIEDNQLLKAVHLQGHEGPVYAVHAVYQRRTSDPALCTLIVSAAADSAVRLWSKKGPEVMCLQTLNFGNGFALALCLSFLPNTDVPILACGNDDCRIHIFAQQNDQFQKVLSLCGHEDWIRGVEWAAFGRDLFLASCSQDCLIRIWKLYIKSTSLETQDDDNIRLKENTFTIENESVKIAFAVTLETVLAGHENWVNAVHWQPVFYKDGVLQQPVRLLSASMDKTMILWAPDEESGVWLEQVRVGEVGGNTLGFYDCQFNEDGSMIIAHAFHGALHLWKQNTVNPREWTPEIVISGHFDGVQDLVWDPEGEFIITVGTDQTTRLFAPWKRKDQSQVTWHEIARPQIHGYDLKCLAMINRFQFVSGADEKVLRVFSAPRNFVENFCAITGQSLNHVLCNQDSDLPEGATVPALGLSNKAVFQGDIASQPSDEEELLTSTGFEYQQVAFQPSILTEPPTEDHLLQNTLWPEVQKLYGHGYEIFCVTCNSSKTLLASACKAAKKEHAAIILWNTTSWKQVQNLVFHSLTVTQMAFSPNEKFLLAVSRDRTWSLWKKQDTISPEFEPVFSLFAFTNKITSVHSRIIWSCDWSPDSKYFFTGSRDKKVVVWGECDSTDDCIEHNIGPCSSVLDVGGAVTAVSVCPVLHPSQRYVVAVGLECGKICLYTWKKTDQVPEINDWTHCVETSQSQSHTLAIRKLCWKNCSGKTEQKEAEGAEWLHFASCGEDHTVKIHRVNKCAL
notes: ELP2, human, codon-optimized open reading frame; predicted MW printed as 93 kDa; Same material as the ELP2 chain of m4; The ORF was first cloned into pFastBac1 HT A; source: SuperSf9-3 insect cells, co-expressed with ELP1 and ELP3 (pBig1a), purified as ELP123 (StrepTrap, heparin, Superose 6)
Turning to B6, the stoichiometry N (usually the number of molecules, sites or subunits per partner or assembly) in data set [4] came out at 1.
